The source of these data is US20150232562A1 (Ablynx, published 2015).

B1: 13G61/1-118 (VHH)
VHH: EVQLVESGGGVVQAGGSLRLSCAPSGRTFSSYVMGWVRQAPGKAREFVAGITRNSGRTRYADSVKGRFTISRDNADNTVTLQMNSLKPEDTAVYYCAGGIDLYTFHYFGQGTQVTVSS
notes: C-term myc-His6 tag
B2: 14H41/1-118 (VHH)
VHH: B1 VHH with V11L, G56I, H106D
notes: C-term myc-His6 tag
B3: 11B12/1-118 (VHH)
VHH: EVQLVESGGGLVQAGGSLRLSCAASGRALINYAMGWFRQAPGKEREFVSAINWSGSHTDYGDSVKGRFAISRDNAKNTVYLQMHSLKPEDTAVYHCATGYSLPAFDSWGPGTQVTVSS
notes: C-term myc-His6 tag
B4: 11B91/1-125 (VHH)
VHH: EVQLVESGGALVQPGGSLRLSCAASGSIRSINTMGWYRQAPGNQREFVAAVTEGGTTSYAASVKGRFTISRDKAKNTVLLQMDSLKPEDTAVYYCNADRFLYYSAGRYDTGSDIWGQGTQVTVSS
notes: C-term myc-His6 tag
B5: 13G51/1-127 (VHH)
VHH: EVQLVESGGGLVQAGGSLSLSCAASGGTFNGRAVGWFRQAPGEEREFVTGISWSGGSTDYADSVKGRFTISRDNSKNTVSLQMNSLKPEDTAVYYCAASRRFYSGLVYYSVDAYENWGQGTQVTVSS
notes: C-term myc-His6 tag
B6: 22C65/1-124 (VHH)
VHH: EVQLVESGGGLVQAGGSLRLSCAVSGFLFDSYAMGWFRQAPGKEREFVAAIRWSGSATDYSDSVKGRFTISRDNAKNTVYLQMNSLIPEDTAVYYCAARKTYRSLTYYGEYDSWGQGTQVTVSS
notes: C-term myc-His6 tag
B7: 11B51/1-127 (VHH)
VHH: EVQLVESGGGLVQAGGSLRLSCAASGGTFSGRGMGWFRQAPGKEREFVAAVSWSGGNTYYADSVKGRFTISRDNAKSTVYLQMDSLKPEDTAVYYCAASRRFYSGLYYYTDDAYEYWGQGTQVTVSS
notes: C-term myc-His6 tag
B8: 11B81/1-126 (VHH)
VHH: EVQLVESGGGLVQAGGSLRLSCAASGRPVNNYIMGWFRQALGQGREFVAAINRNGATAAYADSVKGRFTISRDNAEDLLYLQMNLLKPEDTAVYYCAANSDSGFDSYSVWAAYEYWGQGTQVTVSS
notes: C-term myc-His6 tag
B9: 12D121/1-126 (VHH)
VHH: EVQLVESGGGLVQTGGSLRLSCAASGRAFSTYGMGWFRQAPGKAREFVAAISRSGTGTYYAGSMKGRFTISRDDAKNTVYLQMNSLKPEDTAVYYCAARQPYASGSHYSSTQYTYWGQGTQVTVSS
notes: C-term myc-His6 tag
B10: 12D31/1-115 (VHH)
VHH: EVQLVESGGGLVQPGGSLRLSCAASRNIFDFNDMGWYRQGPGKEREFVALINVGGVAKYEDSVKGRFTISRDNAENTVYLQMNNLKPEDMAVYYCNARILSRNYWGQGNQVTVSS
notes: C-term myc-His6 tag
B11: 22B610/1-120 (VHH)
VHH: EVQLVESGGGLVQPGGSLRLSCAASGSIFSINAMGWYRPAPGKQRELVARITSTGSTNYADSVKGRFTISRDNAKNTVYLQMNSLKPEDTAVYYCNADVSPSYGSRWYGWGQGTQVTVSS
notes: C-term myc-His6 tag
B12: 22B85/1-120 (VHH)
VHH: EVQLVESGGGLVRPGGSLRLSCATSGSDIGINAMGWYRQAPGNQRELVATITGSTGTTYADSVKGRFAISRDGAKNTVYLQMDSLKPEDTAVYYCNLRVYTGTYGGRNYWGQGTQVTVSS
notes: C-term myc-His6 tag
B13: 13E61/1-123 (VHH)
VHH: EVQLVESGGGLVQAGGSLRLSCTASGQTFNMGWFRQAPGKEREFVAAISWSQYNTKYADSVKGRFTISRDNAINSLYLQMDTLKPEDTAVYYCAATNRWFSAVYDLPSRYTYWGQGTQVTVSS
notes: C-term myc-His6 tag
B14: 13E51/1-128 (VHH)
VHH: EVQLVESGGGLVQAGGSLRLSCAASRHTFSGYAMGWFRQAPGKEREFVAAIRWSGGITYYADSVKGRFTISSDNAKNTVYLQMNSLKPEDTALYYCARSVTYYSGSHAYTQEGGYARWGQGTQVTVSS
notes: C-term myc-His6 tag
B15: 13F41/1-111 (VHH)
VHH: EVQLVESGGGLVQAGGSLRLSCVASGRTLSTTGVGWFRQAPGKERESVATIFVGGTTYYSDSVKGRFTISRDNAKNAVNLQMSNLKPEDTALYYCTIGSYRGQGTQVTVSS
notes: C-term myc-His6 tag
B16: 13F42/1-111 (VHH)
VHH: B15 VHH with E44G, Y93H
notes: C-term myc-His6 tag
B17: 12C101/1-111 (VHH)
VHH: B15 VHH with K75R, L80P, S83N, L92V
notes: C-term myc-His6 tag
B18: 22B41/1-124 (VHH)
VHH: EVQLVESGGGLVQPGGSLRLSCTVFGRTFSGDVIGWFRQAPGKEREFVAAISTSGGGTDSADSVKGRFTISKENAKNTVYLQMTILKPEDTAVYYCASSPYGPLYRSTHYYDYWGQGTQVTVSS
notes: C-term myc-His6 tag
B19: 22B71/1-114 (VHH)
VHH: EVQLVESGGAFVQPGGSLRLSCAASGSDVWFNVMGWYRQGPGQQLELVASITYGGNINYGDPVKGRFSISRDNALKTVYLQMNSLKPEDTAVYYCYADLPSRLWGQGTQVTVSS
notes: C-term myc-His6 tag
B20: 13E101/1-128 (VHH)
VHH: EVQLVESGGGLVQAGGSLRLSCAVSGRTFNNDHMGWFRQAPGTERELVAATGRRGGPTYYADSVKGRFTISRDNAESTVYLQMNSLKAEDTAVYYCAANRYYCSTYGCLSTPRQYDYWGQGTQVTVSS
notes: C-term myc-His6 tag
B21: 12C32/1-127 (VHH)
VHH: EMQLVESGGGLVQAGGSLRLSCATSERTFSTYTMAWFRQAPGKEREFVVAIKSSDNSTSYRDSVKGRFTISRDNAKSTMYLQMNSLKPEDTAVYYCAARREYSTIYTARYPGEYVYWGQGTQVTVSS
notes: C-term myc-His6 tag
B22: 13F121/1-119 (VHH)
VHH: EVQLVESGGGLVQAGGSLRLSCAASGRSFNDYTMGWFRQTPGKEREFVARVWWNGGSAYYADSVKGRFTISIDNAKNTVYLQMNNLTPEDTAVYYCAALYRGRSVYDDWGQGTQVTVSS
notes: C-term myc-His6 tag
B23: 12D92/1-123 (VHH)
VHH: EVQLVESGGGLVQAGGSLRLSCAASGRTYNMAWFRQAPGKEREFVAAMNWSGGSTKYAESVKGRFTISRANDNNPLYLQMNTLKPEDTAVYYCAATNRWYTGVYDLPSRYEYWGQGTQVTVSS
notes: C-term myc-His6 tag
B24: 14H21/1-125 (VHH)
VHH: EVQLVESGGGLVQAGGSLRLSCVRSGGYFGSYHIGWFRQAPGNEREFVAAITWNGASTSYADSVKGRFTISRSIAENTVYLQMNKVKPEDTAVYYCAARMYGSDWLPRPEDFDSWGQGTQVTVSS
notes: C-term myc-His6 tag
B25: 14H91/1-127 (VHH)
VHH: EVQLVESGGGLVQAGGSLRLSCAASGRTFSRDVMGWFRQAPGKEREFVAAKTWSGASTYYADSVRGRFTISRDNAKNAVYLQMNSLKPEDTAVYYCAARDSSTLDSTYYVGGSYNYWGRGTQVTVSS
notes: C-term myc-His6 tag
B26: 12D61/1-116 (VHH)
VHH: EVQLVESGGGLVQPGGSLRLSCAASRSIFSPNVVGWYRQAPGKQRELVAAVTSGGITNYADSVKGRFTISRDNAKNTLYLQMNSLKAEDTAVYYCNARERGIYDSWGQGTQVTVSS
notes: C-term myc-His6 tag
B27: 11C11/1-121 (VHH)
VHH: EVQLVESGGGLVQAGGSLRLSCAASGRTFSAYAMGWFRQAPGKERESVATIRWTGGSSSTSYADSVKGRFTISKNTAENTVYLQMNSLKPEDTAVYYCAVLLTVWDTYKYWGQGTQVTVSS
notes: C-term myc-His6 tag
B28: 12D71/1-125 (VHH)
VHH: EVQLVESGGGLVQAGGSLGLSCAASGRTVSTMGWFRQAPGKEREFVTAITWSGDSTNFADSVKGRFTISRDSAKDTVYLQMNNLKPEDTAVYYCAATTYYSGSYISTLSTSYNYWGQGTQVTVSS
notes: C-term myc-His6 tag
B29: 13G31/1-125 (VHH)
VHH: EVQLVESGGGLVQAGGSLRLSCAASGGTFSRYKMGWFRQAPGKEREFVAASRWSGGIKYHADSVKGRFTISRDDAKNSIYLQMNTLKPEDTAVYYCAADDYLGGDNWYLGPYDSWGQGTQVTVSS
notes: C-term myc-His6 tag
B30: 11A71/1-125 (VHH)
VHH: EVQLVESGGGLVQPGGSLRLSCAASRSIRSVSVMGWYRLAPGNQRELVATITADGITNYADSVKGRFTVSRDNGRNTVYLQMNSLKPEDTAVYYCNVDRLLYYSSGYYQTSVDVWGQGTQVTVSS
notes: C-term myc-His6 tag
B31: 11B121/1-127 (VHH)
VHH: EVQLVESGGGLVQPGGSLRLSCAASGSSASINTMGWYRQAPGEQRELVAEITEGGIINYTDSVKGRFTISRDNAKNTVYLEMNNLKPEDTAVYYCNADRALYRNYSDGRYYTGYDYWGQGTQVTVSS
notes: C-term myc-His6 tag
B32: 11A81/1-125 (VHH)
VHH: EVQLVESGGALVQPGGSLRLSCAASDSIRSINIMGWYRQAPGKQREFVAAVTEDGSINYAESVKGRFTISRDKAKNALYLQMNSLKPEDMAVYYCNADRVLYYSDSRYYTGSNYWGQGTQVTVSS
notes: C-term myc-His6 tag
B33: 13G121/1-127 (VHH)
VHH: EVQLVESGGGLVRAGTSLRLSCADSARTFSSAAMGWFRQAPGKEREFVSAISPIGSSKYYADSVKGRFTISRDNAKNTVYLQMDSLKPEDTAVYYCAASSYGSTYYSQGRAYYYDYWGQGTQVTVSS
notes: C-term myc-His6 tag

Numbering of substitutions follows the chain as printed.

The assay concerns the target T1, recombinant human ErbB2/Fc chimera (human, UniProt P04626 23-652).
T1 construct: bought from R&D Systems; also called rhErbB2-Fc; rhErb2-Fc; Fc part of the bought chimera not given; not described
Put plainly: ELISA, coated ErbB2/Fc. For orientation: In an ELISA, binding on a coated surface is turned into a signal by an enzyme label.
Consider B1, for which the binding result is “binds”.

On to B2, for which the binding result is “binds”.

As for B3, the binding result is given as “binds”.

As to B4, the binding result is “binds”.

Regarding B5, the binding result is reported as “binds”.

Regarding B6, the binding result is on record as “binds”.

B7: the binding result is given as “binds”.

Consider B8, for which the binding result is reported as “binds”.

Turning to B9, the binding result is “binds”.

As for B10, the binding result was “binds”.

As for B11, the binding result is given as “binds”.

Take B12: the binding result was “binds”.

On to B13, for which the binding result is “binds”.

Regarding B14, the binding result was “binds”.

Consider B15, for which the binding result is recorded as “binds”.

Regarding B16, the binding result was “binds”.

B17: the binding result is “binds”.

For B18, the binding result is recorded as “binds”.

For B19, the binding result is “binds”.

Consider B20, for which the binding result is on record as “binds”.

Regarding B21, the binding result is “binds”.

B22: the binding result is “binds”.

Take B23: the binding result was “binds”.

Regarding B24, the binding result is on record as “binds”.

Regarding B25, the binding result is “binds”.

Turning to B26, the binding result is “binds”.

In the case of B27, the binding result is “binds”.

For B28, the binding result is “binds”.

In the case of B29, the binding result is “binds”.

B30: the binding result was “binds”.

As to B31, the binding result is “binds”.

For B32, the binding result is on record as “binds”.

Regarding B33, the binding result is recorded as “binds”.
